# Results taken from patent US8759295B2, “Peptide-peptidase inhibitor conjugates and methods of using same” (Amylin Pharmaceuticals, LLC, priority 2006, dated 2014).
# Where two headings read alike, the source gives them in different places.
# Tests used:
# [1] = target: T1, Recombinant DPP-IV (Homo sapiens, UniProt P27487); assay: DPP-IV resistance assay by mass spectrometry
# Protocol: The peptides were then desalted and concentrated on a C18 peptide micro trap (Michrom Bioresources, Inc., Auburn, Calif.) prior to introduction to a LTQ FT™ mass spectrometer (Thermo-Electron Corp., Waltham, Mass.) via an autosampler (Michrom Bioresources, Inc.). Peptides were eluted from a C5 packed 75 μm fused silica pico-frit column (New Objective, Inc., Woburn, Mass.) using a 5-60% acetonitrile/water gradient over 50 minutes at a flow rate of 500 nl/min. Extracted ion mass windows for the calculated m/z values of the most dominant charge states were used to search for both the parent compound and the theoretical hydrolyzed products within a given chromatogram. Exact mass was confirmed for each charge state by FT. The percentage of hydrolysis catalyzed by DPP-IV was estimated by dividing the area of product ions by the area of the total (parent+product) ions.
# The estimated cleavage product conversion is based on the ratio of the ion extract area (indicated on top of the peaks) for [product ion]^5+ over that for total ions ([Mother Ion]^5++[product ion]^5+). The m/z ratios used to search for the expected ions are listed on the right side of the plots.
# [2] = human, kidney or brush border membranes, 4 h, pH 7.4
# Protocol: The tubes were incubated in VorTemp 56™ (Eurotech Labs, UK) at 37° C. vortexed at 500 RPM. At time points of 0, 1, 2, 3, 4, and 5 hours, 200 μl STOP solution (50% ACN, 1% formic acid) was added to a given tube, and the samples were allowed to incubate until the end of the experiment. The samples were collected after 5 hours, centrifuged, and 200 μl of the supernatants were transferred into mass spectrometry vials. The intensities of the mother ions in each vial were analyzed with API 150EX™ mass spectrometer (Applied Biosystems, Foster City, Calif.) and quantified using the ANALYST™ program.
# The hKBBM assay was also performed in the presence of valinepyrrolidide, a DPP-IV inhibitor.
# [3] = tested on: NIH/Swiss mice; assay: Oral glucose tolerance test (OGTT), glucose lowering; conditions: IP
# [4] = target: T1, Recombinant DPP-IV; design: purchased Chemicon International, Inc., Temecula, Calif; conditions: Leiting et al. (2003); read-out: DPP-IV IC50, published value; cited from earlier work
# T1 sequence (P27487 whole entry, species assumed, the tested form may be a part): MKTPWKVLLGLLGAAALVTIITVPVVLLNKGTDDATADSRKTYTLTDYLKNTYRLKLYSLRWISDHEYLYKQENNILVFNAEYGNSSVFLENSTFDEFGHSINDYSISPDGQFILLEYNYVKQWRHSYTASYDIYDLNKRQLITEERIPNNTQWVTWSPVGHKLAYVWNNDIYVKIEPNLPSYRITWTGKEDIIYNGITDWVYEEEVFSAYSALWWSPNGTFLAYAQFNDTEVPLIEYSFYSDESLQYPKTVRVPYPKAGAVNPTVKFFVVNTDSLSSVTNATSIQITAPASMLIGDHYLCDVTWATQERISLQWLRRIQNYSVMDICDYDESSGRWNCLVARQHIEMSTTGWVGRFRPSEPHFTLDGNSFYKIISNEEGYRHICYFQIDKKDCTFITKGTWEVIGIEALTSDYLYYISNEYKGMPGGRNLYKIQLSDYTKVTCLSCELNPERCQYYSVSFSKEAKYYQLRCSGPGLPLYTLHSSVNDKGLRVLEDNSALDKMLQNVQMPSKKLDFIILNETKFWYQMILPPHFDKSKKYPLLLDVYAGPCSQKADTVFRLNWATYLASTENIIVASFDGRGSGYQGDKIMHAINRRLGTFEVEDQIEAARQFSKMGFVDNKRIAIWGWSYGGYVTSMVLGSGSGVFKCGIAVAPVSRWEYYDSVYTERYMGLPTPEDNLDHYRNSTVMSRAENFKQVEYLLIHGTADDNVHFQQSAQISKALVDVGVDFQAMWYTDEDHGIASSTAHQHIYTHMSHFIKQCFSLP
compound,measurement,setting,value
"CC[C@H](C)[C@H](NC(=O)[C@H](Cc1ccccc1)NC(=O)[C@H](CCC(=O)O)NC(=O)[C@H](CCCCN)NC(=O)[C@H](C)NC(=O)[C@H](C)NC(=O)[C@H](CCC(N)=O)NC(=O)CNC(=O)[C@H](CCC(=O)O)NC(=O)[C@H](CC(C)C)NC(=O)[C@H](Cc1ccc(O)cc1)NC(=O)[C@H](CO)NC(=O)[C@H](CO)NC(=O)[C@@H](NC(=O)[C@H](CC(=O)O)NC(=O)[C@H](CO)NC(=O)[C@@H](NC(=O)[C@H](Cc1ccccc1)NC(=O)[C@@H](NC(=O)CNC(=O)[C@H](CCC(=O)O)NC(=O)[C@H](C)NC(=O)[C@@H](N)Cc1c[nH]cn1)[C@@H](C)O)[C@@H](C)O)C(C)C)C(=O)N[C@@H](C)C(=O)N[C@@H](Cc1c[nH]c2ccccc12)C(=O)N[C@@H](CC(C)C)C(=O)N[C@H](C(=O)N[C@@H](CCCCN)C(=O)NCC(=O)N[C@@H](CCCNC(=N)N)C(=O)NCC(=O)NCC(=O)NCC(=O)NCCCC[C@H](N)C(=O)N1CCSC1)C(C)C [Compound 4844, GLP-1-(7-37)-GG-(S)-2,6-diamino-1-(thiazolidin-3-yl)hexan-1-one amide]",DPP-IV catalyzed cleavage product ions,[1]; incubation with DPP-IV,expected product ions were not observed
"CC[C@H](C)[C@H](NC(=O)[C@H](Cc1ccccc1)NC(=O)[C@H](CCC(=O)O)NC(=O)[C@H](CCCCN)NC(=O)[C@H](C)NC(=O)[C@H](C)NC(=O)[C@H](CCC(N)=O)NC(=O)CNC(=O)[C@H](CCC(=O)O)NC(=O)[C@H](CC(C)C)NC(=O)[C@H](Cc1ccc(O)cc1)NC(=O)[C@H](CO)NC(=O)[C@H](CO)NC(=O)[C@@H](NC(=O)[C@H](CC(=O)O)NC(=O)[C@H](CO)NC(=O)[C@@H](NC(=O)[C@H](Cc1ccccc1)NC(=O)[C@@H](NC(=O)CNC(=O)[C@H](CCC(=O)O)NC(=O)[C@H](C)NC(=O)[C@@H](N)Cc1c[nH]cn1)[C@@H](C)O)[C@@H](C)O)C(C)C)C(=O)N[C@@H](C)C(=O)N[C@@H](Cc1c[nH]c2ccccc12)C(=O)N[C@@H](CC(C)C)C(=O)N[C@H](C(=O)N[C@@H](CCCCN)C(=O)NCC(=O)N[C@@H](CCCNC(=N)N)C(=O)NCC(=O)NCC(=O)NCC(=O)NCCCC[C@H](N)C(=O)N1CCSC1C#N)C(C)C (stereo partly drawn) [Compound 4845, GLP-1-(7-37)-GG-(S)-2,6-diamino-1-(thiazolidin-2-cyano-3-yl)hexan-1-one amide]",DPP-IV catalyzed cleavage product ions,[1],expected product ions were not observed
"CC[C@H](C)[C@H](NC(=O)[C@H](Cc1ccccc1)NC(=O)[C@H](CCC(=O)O)NC(=O)[C@H](CCCCN)NC(=O)[C@H](C)NC(=O)[C@H](C)NC(=O)[C@H](CCC(N)=O)NC(=O)CNC(=O)[C@H](CCC(=O)O)NC(=O)[C@H](CC(C)C)NC(=O)[C@H](Cc1ccc(O)cc1)NC(=O)[C@H](CO)NC(=O)[C@H](CO)NC(=O)[C@@H](NC(=O)[C@H](CC(=O)O)NC(=O)[C@H](CO)NC(=O)[C@@H](NC(=O)[C@H](Cc1ccccc1)NC(=O)[C@@H](NC(=O)CNC(=O)[C@H](CCC(=O)O)NC(=O)[C@H](C)NC(=O)[C@H](Cc1c[nH]cn1)NC(=O)COCCOCCNC(=O)COCCOCCNC(=O)[C@@H]1CCCN1C(=O)[C@H](C)NC(CCc1ccccc1)C(=O)O)[C@@H](C)O)[C@@H](C)O)C(C)C)C(=O)N[C@@H](C)C(=O)N[C@@H](Cc1c[nH]c2ccccc12)C(=O)N[C@@H](CC(C)C)C(=O)N[C@H](C(=O)N[C@@H](CCCCN)C(=O)NCC(=O)N[C@@H](CCCNC(=N)N)C(N)=O)C(C)C (stereo partly drawn) [Compound 4984, (R,S)-1-[N^2-(1-carboxy-3-phenylpropyl)-L-ala]-L-pro-8-amino-3,6-dioxaoctanoyl-8-amino-3,6-dioxaoctanoyl-GLP-1-(7-36) amide]",intact conjugate compound present,[2],greater than 80%
same,"glucose lowering in OGTT (FIGS. 7, 8)",[3]; 2 hour fasted mice,retain the glucose-lowering activity of GLP-1
same,duration of glucose lowering in OGTT,[3]; 240 minutes sample,prolonged effect 4 hours after dosing
"CCC(C)C(N)C(=O)N1CCCC1C(=O)NC(C(=O)O)C(C)CC (stereo not drawn) [Diprotin A, Ile-Pro-Ile]",IC50,[4],3.5 µM
